Paper PMC5789952 (Proceedings of the National Academy of Sciences of the …, 2017)
Values belong to the binder of their own block, whether it stands above or below them.

Tests used:
[1] = molecular target: T1, STAT2 (133–748) of the purified STAT1–STAT2 heterodimer (mouse, UniProt Q9WVL2 133-748); assay: tandem affinity co-purification
T1 sequence (looked up): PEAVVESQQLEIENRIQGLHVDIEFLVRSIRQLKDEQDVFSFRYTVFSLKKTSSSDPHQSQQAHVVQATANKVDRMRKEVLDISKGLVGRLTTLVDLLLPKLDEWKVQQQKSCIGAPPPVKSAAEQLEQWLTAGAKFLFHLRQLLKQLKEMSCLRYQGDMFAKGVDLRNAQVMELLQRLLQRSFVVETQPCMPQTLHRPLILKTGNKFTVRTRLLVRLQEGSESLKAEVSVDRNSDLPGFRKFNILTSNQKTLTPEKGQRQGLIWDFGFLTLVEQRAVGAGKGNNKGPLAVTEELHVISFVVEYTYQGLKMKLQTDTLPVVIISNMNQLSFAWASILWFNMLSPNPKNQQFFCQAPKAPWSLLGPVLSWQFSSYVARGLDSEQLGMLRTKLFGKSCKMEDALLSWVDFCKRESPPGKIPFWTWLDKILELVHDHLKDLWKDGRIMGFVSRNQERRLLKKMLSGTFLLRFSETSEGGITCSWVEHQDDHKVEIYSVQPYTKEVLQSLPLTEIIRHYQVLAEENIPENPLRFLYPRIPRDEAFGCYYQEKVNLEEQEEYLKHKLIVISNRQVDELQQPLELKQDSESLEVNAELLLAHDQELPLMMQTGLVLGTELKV

IRF9–IAD_(182–385) = molecular target: T2, IRF9–IAD_(182–385) (mouse, UniProt Q61179 182-385); assay: SEC
T2 sequence (looked up): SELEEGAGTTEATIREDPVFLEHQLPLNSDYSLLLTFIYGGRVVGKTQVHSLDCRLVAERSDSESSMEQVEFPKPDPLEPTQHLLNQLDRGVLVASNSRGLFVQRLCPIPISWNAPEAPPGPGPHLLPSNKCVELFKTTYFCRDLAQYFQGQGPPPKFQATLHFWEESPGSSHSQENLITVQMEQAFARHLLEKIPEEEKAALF

IRF9-DBD = molecular target: T3, IRF9-DBD (Mus musculus, UniProt Q61179 1-116); assay: EMSA
T3 sequence: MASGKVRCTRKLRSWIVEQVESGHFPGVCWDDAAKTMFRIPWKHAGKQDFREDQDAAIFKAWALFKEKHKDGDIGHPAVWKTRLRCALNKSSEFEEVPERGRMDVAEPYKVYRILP

STAT2_(133–679) = molecular target: T4, STAT2_(133–679) (mouse, UniProt Q9WVL2 133-679); assay: SEC-MALS
T4 sequence (looked up): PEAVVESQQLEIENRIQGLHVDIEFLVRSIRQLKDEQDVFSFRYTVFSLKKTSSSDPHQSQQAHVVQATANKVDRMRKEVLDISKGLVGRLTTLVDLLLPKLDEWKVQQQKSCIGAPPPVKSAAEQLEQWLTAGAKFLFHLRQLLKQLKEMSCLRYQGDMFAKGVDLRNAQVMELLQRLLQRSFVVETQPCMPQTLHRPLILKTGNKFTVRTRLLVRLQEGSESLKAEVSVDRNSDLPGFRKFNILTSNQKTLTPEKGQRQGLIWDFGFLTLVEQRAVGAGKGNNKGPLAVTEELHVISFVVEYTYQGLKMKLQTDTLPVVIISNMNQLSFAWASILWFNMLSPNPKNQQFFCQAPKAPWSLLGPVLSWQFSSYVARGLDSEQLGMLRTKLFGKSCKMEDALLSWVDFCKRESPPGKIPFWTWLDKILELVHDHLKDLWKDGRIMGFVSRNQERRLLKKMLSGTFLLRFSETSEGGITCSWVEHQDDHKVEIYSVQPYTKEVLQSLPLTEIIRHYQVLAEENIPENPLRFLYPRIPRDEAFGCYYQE

binding result [1]: binds
B1: STAT1 (136–713) of the purified STAT1–STAT2 heterodimer (domain or fragment, mouse, UniProt P42225 136-713, looked up)
chain: LDKQKELDSKVRNVKDQVMCIEQEIKTLEELQDEYDFKCKTSQNREGEANGVAKSDQKQEQLLLHKMFLMLDNKRKEIIHKIRELLNSIELTQNTLINDELVEWKRRQQSACIGGPPNACLDQLQTWFTIVAETLQQIRQQLKKLEELEQKFTYEPDPITKNKQVLSDRTFLLFQQLIQSSFVVERQPCMPTHPQRPLVLKTGVQFTVKSRLLVKLQESNLLTKVKCHFDKDVNEKNTVKGFRKFNILGTHTKVMNMEESTNGSLAAELRHLQLKEQKNAGNRTNEGPLIVTEELHSLSFETQLCQPGLVIDLETTSLPVVVISNVSQLPSGWASILWYNMLVTEPRNLSFFLNPPCAWWSQLSEVLSWQFSSVTKRGLNADQLSMLGEKLLGPNAGPDGLIPWTRFCKENINDKNFSFWPWIDTILELIKNDLLCLWNDGCIMGFISKERERALLKDQQPGTFLLRFSESSREGAITFTWVERSQNGGEPDFHAVEPYTKKELSAVTFPDIIRNYKVMAAENIPENPLKYLYPNIDKDHAFGKYYSRPKEAPEPMELDDPKRTGYIKTELISVSEVH

binding result (IRF9–IAD_(182–385)): binds
B2: STAT2_(133–315) (domain or fragment, mouse, UniProt Q9WVL2 133-315, looked up)
chain: PEAVVESQQLEIENRIQGLHVDIEFLVRSIRQLKDEQDVFSFRYTVFSLKKTSSSDPHQSQQAHVVQATANKVDRMRKEVLDISKGLVGRLTTLVDLLLPKLDEWKVQQQKSCIGAPPPVKSAAEQLEQWLTAGAKFLFHLRQLLKQLKEMSCLRYQGDMFAKGVDLRNAQVMELLQRLLQRS

Further lines, the binder ahead of its results:

B3: ADAR ISRE 29 bp (dsDNA)
DNA 1: TAAGCCTTTTCAAGGAAACGAAAGTGAAC
DNA 2: AGTTCACTTTCGTTTCCTTGAAAAGGCTT
binding result (IRF9-DBD): binds

B4: IRF9_(182–399) (domain or fragment, mouse, UniProt Q61179 182-399, looked up)
chain: SELEEGAGTTEATIREDPVFLEHQLPLNSDYSLLLTFIYGGRVVGKTQVHSLDCRLVAERSDSESSMEQVEFPKPDPLEPTQHLLNQLDRGVLVASNSRGLFVQRLCPIPISWNAPEAPPGPGPHLLPSNKCVELFKTTYFCRDLAQYFQGQGPPPKFQATLHFWEESPGSSHSQENLITVQMEQAFARHLLEKIPEEEKAALFLLQHTEQSPSALGH
stoichiometry N (STAT2_(133–679)): 1
